Experimental data as given in patent US20220054588A1, “USE OF SAP FOR THE TREATMENT OF EUROTIOMYCETES FUNGI INFECTIONS” (HUMANITAS MIRASOLE S.P.A., priority 2018, published 2022).

B1: SAP: Serum Amyloid P component, species not printed at the place; murine Sap per legend b89 for b91, unstated for b97 (protein, UniProt P12246 21-224, looked up)
Serum amyloid P-component: QTDLKRKVFVFPRESETDHVKLIPHLEKPLQNFTLCFRTYSDLSRSQSLFSYSVKGRDNELLIYKEKVGEYSLYIGQSKVTVRGMEEYLSPVHLCTTWESSSGIVEFWVNGKPWVKKSLQREYTVKAPPSIVLGQEQDNYGGGFQRSQSFVGEFSDLYMWDYVLTPQDILFVYRDSPVNPNILNWQALNYEINGYVVIRPRVWD
B2: murine PTX3: Recombinant murine PTX3 purified from Chinese hamster ovary cells (protein)
chain: ETSDDYELMYVNLDNEIDNGLHPTEDPTPCDCRQEHSEWDKLFIMLENSQMREGMLLQATDDVLRGELQRLRAELGRLAGGMARPCAAGGPADARLVRALEPLLQESRDASLRLARLEDAEARRPEATVPGLGAVLEELRRTRADLSAVQSWVARHWLPAGCETAIFFPMRSKKIFGSVHPVRPMKLESFSTCIWVKATDVLNKTILFSYGTKWNPYEIQLYLSSQSLVLVVGGKENKLAADTVVSLGRWSHLCGTWSSEQGSMSLWANGELVATTVEMAKSHSVPEGGLLQIGQEKNGCCVGGGFDESLAFSGRITGFNIWDRVLSEEEIRASGGVESCHIRGNVVGWGVTEIQAHGGAQYVS

Legend:
[1] = test system: neutrophils in whole blood; test: Whole blood phagocytosis of A. fumigatus conidia by mouse neutrophils (FACS), with CD11b expression; assay type: cell-based, mice; details: SAP pre-opsonised conidia; for phagocytosis by neutrophils: 1 and 20 min
Procedure: FIGS. 7a and 7b depict the effect of SAP on A. fumigatus phagocytosis by neutrophils. a), b), FACS analysis (out of 3 performed) of phagocytosis (a) and CD11b internalization (b) in neutrophils after challenge with fluorescein-labelled AF conidia (5×10^6/100 μl of blood) opsonized or not with Sap is shown. a) neutrophil phagocytosis in whole blood of wt and Apcs^−/− mice. b) CD11b expression in neutrophils of a. a) and b) Mean±SEM;*, P<0.05;**, P<0.01;***, P<0.005;****, P<0.0005 (unpaired t-test).
FIG. 7c depicts the effect of human SAP on phagocytic activity. FACS analysis of neutrophil phagocytosis in blood of wt and Apcs^−/− mice after exposure with fluorescein-labelled AF conidia (5×10^6/100 μl of blood) opsonized or not with SAP. Figure refers to 2 experiments performed.***, P<0.005;***, P<0.0005 (unpaired t-test).
Cells and in vitro phagocytic activity. Phagocytosis assay in whole blood of A. fumigatus conidia by mouse and human neutrophils was performed as described (Moalli et al., 2010). Briefly, conidia (1×10^9) were labelled (1 h, r.t.) with FITC (Sigma-Aldrich; 5 mg/ml in DMSO), and eventually opsonized (1 h, r.t) with murine SAP (100 μg/ml; […]) and PTX3 (50 μg/ml; 1.1 μM). An amount of 1×10^7 FITC-conidia were added to 200 μl of mouse whole blood (collected with heparin) and incubated for 1, 5, 10, 20 or 30 min at 37° C. in an orbital shaker. Samples were immediately placed on ice and ACK lysis solution was added to lyse erythrocytes. Murine neutrophils were analysed by BD FACS Canto™ II Flow Cytometer (BD Biosciences) as previously described, and frequency and/or mean fluorescence intensity (MFI) of FITC neutrophils and CD11b expression were reported.

U937 cells = test: Phagocytosis of A. fumigatus conidia by U937 cells overexpressing DC-SIGN; assay type: cell-based, human; details: U937 stably transfected for DC-SIGN and control cells
Text: FIG. 9 depicts how SAP effect on phagocytosis is independent from its interaction with DC-SIGN. a) detection of DC-SIGN expression in transfected U937 cells by FACS. Untransfected cells and an irrelevant IgG were used as control. Mean±SD of a quadruplicate experiment is shown. b) FACS analysis of fluorescein-labelled AF conidia (1×10^7) phagocytosis by U937 cells (1×10^5) overexpressing DC-SIGN.
U937 cell lines [control (ATCC® CRL-1593.2™) and transduced with human DC-SIGN (ATCC® CRL-3253™)] were cultured in RPMI-1640 medium containing 5% FCS, 2 mM L-glutamine, 0.1 mM non-essential amino acids (all from Lonza-BioWhittaker™) and 0.05 mM 2-mercaptoethanol (BIO-RAD). DC-SIGN expression was ascertained by FACS using a rabbit polyclonal Ab (#ab5715, 5 μg/ml; AbCam, UK) and an Alexa Fluor® 488-conjugated goat anti rabbit (2 μg/ml; ThermoFisher-Molecular Probes). Phagocytosis of FITC-labelled A. fumigatus conidia (1×10^7) by U937 cells (1×10^5) was performed as above described above.

A. fumigatus conidia = test: FACS binding of biotin-conjugated murine SAP to A. fumigatus conidia, with competition; parameters: species or system Aspergillus fumigatus; details: Sap 0.1-10 μg/ml; Ptx3 50 μg/ml; anti-Sap monoclonal antibody detection
Procedure: FIG. 1 depicts the interaction of SAP with A. fumigatus conidia in mice. a) induction of SAP circulating levels after i.t. injection of 5×10^7 A. fumigatus (AF) conidia; LPS, 0.8 mg/Kg. Mean±SD. c) FACS analysis of binding of biotin-conjugated (b-) murine SAP (Sap; 10 μg/ml) to viable dormant or germinating conidia of AF (1×10^8). Human SAP (50 μg/ml) and CRP (50 μg/ml) were also used. Mean±SD of one quadruplicate experiment of two performed.
FIG. 10 depicts the susceptibility to A. fumigatus associated with single or double deficiency for SAP and PTX3. a and b, survival of wt and Apcs^−/−, Ptx3^−/− and Apcs^−/−, Ptx3^−/− mice after i.t. injection of 1×10^8 (a) or 5×10^7 (b) conidia. a, wt, n=9 (a, b); n=9 (a, b); Ptx3^−/−, n=7 (a) or n=10 (b); Ptx3^−/−, n=5 (a) or n=12 (b). a, b, P<0.05, wt vs. Apcs^−/− P<0.01 wt vs. Apcs^−/−, Ptx3^−/−; P=0.06, Apcs^−/−, Ptx3^−/− vs. Ptx3^−/− (Mantel-Cox test). a) Curves of wt and Apcs^−/− refer to the same ones shown in FIG. 2a-c FACS analysis of Sap (range from 0.1 to 10 μg/ml) binding to viable AF conidia (1×10^8) in presence of Ptx3 (50 μg/ml). An anti-Sap monoclonal antibody (non-reactive to Ptx3) was used. Mean±SD of a triplicate. **, P<0.01;***, P<0.005;****, P<0.0001 (unpaired t-test).
Binding of SAP. Conidia of A. fumigatus and A. flavus (1×10^8 CFU) were cultured 4 and 16 h under static condition in Sabouraud medium to respectively allow conidia swelling and germination. Blastospores and yeast of Candida albicans were prepared as previously described (Santus et al., 2017). Yeast (8×10^6/ml) were incubated at 37° C. for hyphal induction. Formation of hyphae was evaluated under a microscope at different time points until its amount was assessed at 95%. […] After extensive washing, samples were incubated (30 min, r. t.) with Alexa Fluor® 647-conjugated streptavidin and binding was evaluated by FACS as frequency and MFI and visualized by confocal microscopy as described. […]

Molecule	CD11b internalization in neutrophils ([1]; Apcs−/− neutrophils)	phagocytosis by neutrophils ([1]; Apcs−/− whole blood)	CD11b internalization in neutrophils ([1]; wt neutrophils)	phagocytosis by neutrophils ([1]; wt whole blood)	SAP-mediated enhancement of phagocytosis, DC-SIGN transfected versus control cells (U937 cells)	competition of murine SAP binding to conidia (A. fumigatus conidia)
B1	restored CD11b internalization	rescued the defect	prompted it	potentiated phagocytosis	similar	
B2						competed
